Test results as given in US20130149306A1, “Antagonists of Sema3E/PlexinD1 interaction as anti-cancer agents” (NETRIS PHARMA, priority 2010, published 2013).
Like-named read-outs stand apart in the source and are kept apart here.

Tests used:
[1] = target: T1, Sema3E (Mus musculus, UniProt P70275); assay: Co-precipitation in transfected HEK293T cells (His-tagged Sema3E, Nickel resin); format: binding; conditions: myc-tagged SD1, AP-His-tagged Sema3E
T1 construct: expressed in transfected cells; host or cells: HEK293T
T1 sequence (P70275 26-775): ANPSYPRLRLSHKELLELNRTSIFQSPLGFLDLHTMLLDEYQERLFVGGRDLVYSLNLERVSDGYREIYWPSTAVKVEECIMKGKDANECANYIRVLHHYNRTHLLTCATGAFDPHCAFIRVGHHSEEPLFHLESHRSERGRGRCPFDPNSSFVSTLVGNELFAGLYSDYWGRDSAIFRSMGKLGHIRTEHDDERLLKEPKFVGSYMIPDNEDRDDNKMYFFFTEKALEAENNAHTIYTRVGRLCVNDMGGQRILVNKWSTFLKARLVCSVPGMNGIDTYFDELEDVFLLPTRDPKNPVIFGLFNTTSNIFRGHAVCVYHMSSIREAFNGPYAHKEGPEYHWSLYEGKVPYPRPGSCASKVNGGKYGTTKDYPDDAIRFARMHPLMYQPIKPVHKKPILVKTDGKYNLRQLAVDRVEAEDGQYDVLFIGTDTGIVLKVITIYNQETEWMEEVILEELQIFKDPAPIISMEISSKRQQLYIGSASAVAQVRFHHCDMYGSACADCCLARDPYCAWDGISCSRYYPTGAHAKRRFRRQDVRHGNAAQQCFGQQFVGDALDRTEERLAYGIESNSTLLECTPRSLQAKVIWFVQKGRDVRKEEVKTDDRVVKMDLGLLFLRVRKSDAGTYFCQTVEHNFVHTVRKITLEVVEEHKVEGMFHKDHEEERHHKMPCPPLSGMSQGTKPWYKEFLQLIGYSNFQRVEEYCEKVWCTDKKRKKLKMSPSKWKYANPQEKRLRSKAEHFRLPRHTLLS
From the text: (A) SD1 is composed of the immunoglobulin (Ig) k-chain secretion signal peptide, followed by the sema domain of mouse PlexinD1 protein (aa 61 to 531) fused in frame with six myc epitope tags (a.a: amino acid). (B) Co-precipitation experiments on HEK 293T cells transfected with the indicated combinations of myc-tagged SD1, Alkaline phosphatase(AP)-Histidine(His)-tagged Sema3E. SD1 can form a complex with Sema3E protein when His-tagged Sema3E is precipitated with a Nickel resin. (C) Displacement curve of Sema3E binding to PlexinD1-expressing HEK 293T cells by increasing concentrations of SD1 (from 1-12 nM). […] (D-G) Quantification of cell death induction by SD1 in cultures of 4T1 (D-E), MDA-MB-231 (F-G) and MCF-7 (F-G) cells measured by trypan blue exclusion (D and F) or by quantification of the percentage of cleaved Caspase-3 positive cells (E and G) in the absence or presence of exogenous Sema3E (100 ng/ml). SD1 is added as conditioned medium from transfected HEK 293T cells at increasing concentration (0 to 20 nM) (D) or fixed concentration (20 nM) (E-G).
HEK293T cells were transfected with AP-Sema3E-his and/or equal amounts of SD1 vectors. […] After incubation with HRP conjugated secondary antibodies, signals were detected with enhanced chemoluminescence system (GE Healthcare, RPN2132). […]

[2] = target: PlexinD1 (Homo sapiens, UniProt Q9Y4D7); assay: Co-precipitation in transfected HEK293T cells; format: binding; conditions: data not shown
Description: We first set up co-precipitation experiments in transfected HEK293T cells to investigate whether the SD1 interacted with Sema3E ligand. […] Next, we examined the displacement of Sema3E binding to Hek293T cells expressing PlexinD1 by different concentrations of SD1 (from 1-12 nM) present in conditioned medium of HEK293T cells transfected with the SD1 plasmid.

[3] = target: T2, Neuropilin-1 (Homo sapiens, UniProt O14786); assay: Co-precipitation in transfected HEK293T cells; format: binding; conditions: data not shown
T2 construct: expressed in transfected cells; host or cells: HEK293T

[4] = target: T3, VEGFR2 (Homo sapiens, UniProt P35968); assay: Co-precipitation in transfected HEK293T cells; format: binding; conditions: data not shown
T3 construct: expressed in transfected cells; host or cells: HEK293T

[5] = tested on: 4T1 cells; assay: Cell death/viability in cultures of 4T1 cells; format: cell-based, mouse
Description: (§1) Cell death/viability was determined by trypan blue dye exclusion, MTT cell viability assay, calcein assay, and anti-active caspase-3 immunoreactivity. In some experiments, cells were seeded in multiple 24-well plates (5×10^4 cells/well) for 24 h then transfected with different vectors using Lipofectamine Plus (Invitrogen): The different analysis occurred after 48 h (HEK-293T cells) or 72 h (4T1 cells) of serum starvation. In some experiments, cells were cultured in the presence of 10 μM caspase inhibitors: caspase-3 inhibitor II (Z-DEVD-FMK, 264155, VWR), caspase-8 inhibitor II (Z-IETD-FMK, 218759, VWR), and caspase-9 inhibitor II ([…], 218776, VWR).
(§2) For trypan blue exclusion experiments, total cells (adherent and floating) were collected by mechanical detachment and medium collection. Cells were pelleted by slow centrifugation and resuspended in serum-free medium. Trypan blue (0.4%) was added in a ratio of 1:1 to the cell suspension, and the percentage of cell death was measured in a hemacytometer by counting, in a blinded fashion and within a given volume, the number of blue (dead) cells and comparing this number to the total number of cells in this same volume.
For caspase staining, after immunostaining with anti-active caspase-3 antibody, the percentage of labelled cells was estimated by comparing the number of active caspase-3-stained cells with the total number of cells present on a given surface.
For assessing cell viability using calcein, cells were plated in OptiMEM medium in 96-well black plates (Greiner Bio-one, Courtaboeuf, France). After 3-6 days in culture, live cells were stained with 0.5 μg/ml green calcein-acetoxymethyl ester (Molecular Probes, Eugene, Oreg.) for 40 minutes at 37° C., and counted using a flash cytometer (Trophos, Marseille, France).
We next used an in vitro assay to evaluate whether SD1 is directly capable of triggering death of tumor cells. […] Similarly, 4T1-SD1 cells, which proliferate at the same rate as 4T1-mock cells during the first 24-48 h in culture, show increased death 72 h after plating, possibly as a result of SD1 accumulation in the culture medium (FIG. 14). […] Thus, SD1 triggers cancer cell death in a PlexinD1 dependent manner.

[6] = tested on: MDA-MB-231 cells; assay: Cell death/viability in cultures of MDA-MB-231 cells; format: cell-based, human
Description: as §1, §2
(§3) For assessing cell viability using calcein, cells were plated in OptiMEM medium in 96-well black plates (Greiner Bio-one, Courtaboeuf, France). […]

[7] = tested on: MCF-7 cells; assay: Cell death/viability in cultures of MCF-7 cells; format: cell-based, human
Description: as §1, §2, §3

[8] = tested on: 4T1 cells; conditions: for Reduction in the volume of the tumor: 4T1-SD1 vs 4T1-mock
Description: In vivo studies were conducted in 6-8 weeks old BALB/c ByJ female mice (Charles River Laboratories France). 4.5×10^5 4T1-mock or 4T1-SD1 cells were injected into the right posterior flank or into the mammary fad pad of anaesthetized animals. Tumor size was measured externally every two days using a calliper, and the width (A) and length (B) of the developing tumor was converted to volume using the equation V=0.52×A^2×B. Mice were sacrificed 27 days after injection or when the tumor volume was equal to 300 mm^3.
We next evaluated the effect of SD1 on tumor development and metastasic behavior in a syngenic breast cancer model in Balb/c mice, from which 4T1 cells were derived. In a first series of experiments, 4T1-SD1 or 4T1-mock cells were injected either subcutaneously or in their normal anatomical site, the mammary fat pad. The primary tumors formed from the injected cells were collected after 27 days.

[9] = 15 nM SD1 in conditioned medium, three days

T2 sequence (O14786 22-923, species assumed): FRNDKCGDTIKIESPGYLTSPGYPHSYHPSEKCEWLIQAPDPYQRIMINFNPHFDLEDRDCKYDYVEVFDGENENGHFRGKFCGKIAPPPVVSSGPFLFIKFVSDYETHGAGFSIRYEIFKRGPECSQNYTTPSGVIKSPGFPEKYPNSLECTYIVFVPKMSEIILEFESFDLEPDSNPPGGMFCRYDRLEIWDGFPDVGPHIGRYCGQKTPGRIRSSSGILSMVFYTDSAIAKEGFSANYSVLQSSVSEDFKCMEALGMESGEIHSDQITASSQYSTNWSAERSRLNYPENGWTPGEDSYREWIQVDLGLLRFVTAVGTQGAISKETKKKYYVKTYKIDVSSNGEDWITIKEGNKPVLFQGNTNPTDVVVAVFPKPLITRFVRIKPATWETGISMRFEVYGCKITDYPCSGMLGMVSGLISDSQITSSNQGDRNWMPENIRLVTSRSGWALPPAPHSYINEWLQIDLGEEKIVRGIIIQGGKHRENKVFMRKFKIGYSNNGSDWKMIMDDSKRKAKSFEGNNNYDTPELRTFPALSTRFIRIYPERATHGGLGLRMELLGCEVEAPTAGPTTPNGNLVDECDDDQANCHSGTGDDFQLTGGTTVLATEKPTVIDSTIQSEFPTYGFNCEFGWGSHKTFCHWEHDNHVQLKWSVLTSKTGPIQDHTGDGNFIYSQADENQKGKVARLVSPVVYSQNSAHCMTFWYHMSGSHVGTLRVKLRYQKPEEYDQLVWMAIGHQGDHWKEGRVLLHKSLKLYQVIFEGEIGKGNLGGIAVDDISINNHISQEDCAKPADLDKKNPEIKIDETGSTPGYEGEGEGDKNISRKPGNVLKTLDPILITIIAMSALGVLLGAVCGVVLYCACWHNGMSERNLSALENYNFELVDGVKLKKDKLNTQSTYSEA
T3 sequence (P35968 20-1356, species assumed): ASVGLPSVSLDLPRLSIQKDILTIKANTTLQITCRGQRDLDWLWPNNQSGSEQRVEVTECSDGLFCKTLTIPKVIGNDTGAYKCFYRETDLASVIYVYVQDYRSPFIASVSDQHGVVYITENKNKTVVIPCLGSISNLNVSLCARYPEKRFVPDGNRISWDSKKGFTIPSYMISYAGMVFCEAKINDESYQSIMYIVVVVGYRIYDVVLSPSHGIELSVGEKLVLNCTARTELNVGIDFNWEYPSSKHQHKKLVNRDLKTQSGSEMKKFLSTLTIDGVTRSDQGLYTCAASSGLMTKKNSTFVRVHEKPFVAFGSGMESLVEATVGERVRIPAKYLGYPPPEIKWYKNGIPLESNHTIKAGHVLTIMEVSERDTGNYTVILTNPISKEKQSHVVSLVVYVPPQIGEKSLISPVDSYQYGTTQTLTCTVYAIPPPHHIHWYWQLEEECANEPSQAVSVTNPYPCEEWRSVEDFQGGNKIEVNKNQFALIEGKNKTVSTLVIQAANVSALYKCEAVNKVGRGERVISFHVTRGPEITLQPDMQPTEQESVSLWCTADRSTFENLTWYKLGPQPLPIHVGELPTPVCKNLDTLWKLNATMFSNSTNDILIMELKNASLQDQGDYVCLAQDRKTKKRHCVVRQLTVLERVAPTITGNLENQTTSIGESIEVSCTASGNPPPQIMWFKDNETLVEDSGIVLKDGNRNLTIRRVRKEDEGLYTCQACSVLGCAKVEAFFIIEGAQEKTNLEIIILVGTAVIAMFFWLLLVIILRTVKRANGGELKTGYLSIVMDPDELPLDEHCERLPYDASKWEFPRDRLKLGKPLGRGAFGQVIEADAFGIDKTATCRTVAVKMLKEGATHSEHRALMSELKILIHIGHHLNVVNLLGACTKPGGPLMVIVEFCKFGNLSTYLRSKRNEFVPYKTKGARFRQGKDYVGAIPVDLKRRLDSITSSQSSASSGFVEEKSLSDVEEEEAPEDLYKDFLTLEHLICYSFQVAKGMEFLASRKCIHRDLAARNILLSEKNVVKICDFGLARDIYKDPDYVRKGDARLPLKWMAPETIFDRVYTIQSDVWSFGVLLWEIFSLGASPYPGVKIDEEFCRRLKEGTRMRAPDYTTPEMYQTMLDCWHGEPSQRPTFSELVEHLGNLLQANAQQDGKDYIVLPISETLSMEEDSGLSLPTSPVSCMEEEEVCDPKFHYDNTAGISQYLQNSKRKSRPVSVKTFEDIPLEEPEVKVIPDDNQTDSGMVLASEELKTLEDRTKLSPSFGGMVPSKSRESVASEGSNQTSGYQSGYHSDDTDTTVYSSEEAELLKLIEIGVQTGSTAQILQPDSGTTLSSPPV
Chain of PlexinD1 (Q9Y4D7 47-1925, species assumed): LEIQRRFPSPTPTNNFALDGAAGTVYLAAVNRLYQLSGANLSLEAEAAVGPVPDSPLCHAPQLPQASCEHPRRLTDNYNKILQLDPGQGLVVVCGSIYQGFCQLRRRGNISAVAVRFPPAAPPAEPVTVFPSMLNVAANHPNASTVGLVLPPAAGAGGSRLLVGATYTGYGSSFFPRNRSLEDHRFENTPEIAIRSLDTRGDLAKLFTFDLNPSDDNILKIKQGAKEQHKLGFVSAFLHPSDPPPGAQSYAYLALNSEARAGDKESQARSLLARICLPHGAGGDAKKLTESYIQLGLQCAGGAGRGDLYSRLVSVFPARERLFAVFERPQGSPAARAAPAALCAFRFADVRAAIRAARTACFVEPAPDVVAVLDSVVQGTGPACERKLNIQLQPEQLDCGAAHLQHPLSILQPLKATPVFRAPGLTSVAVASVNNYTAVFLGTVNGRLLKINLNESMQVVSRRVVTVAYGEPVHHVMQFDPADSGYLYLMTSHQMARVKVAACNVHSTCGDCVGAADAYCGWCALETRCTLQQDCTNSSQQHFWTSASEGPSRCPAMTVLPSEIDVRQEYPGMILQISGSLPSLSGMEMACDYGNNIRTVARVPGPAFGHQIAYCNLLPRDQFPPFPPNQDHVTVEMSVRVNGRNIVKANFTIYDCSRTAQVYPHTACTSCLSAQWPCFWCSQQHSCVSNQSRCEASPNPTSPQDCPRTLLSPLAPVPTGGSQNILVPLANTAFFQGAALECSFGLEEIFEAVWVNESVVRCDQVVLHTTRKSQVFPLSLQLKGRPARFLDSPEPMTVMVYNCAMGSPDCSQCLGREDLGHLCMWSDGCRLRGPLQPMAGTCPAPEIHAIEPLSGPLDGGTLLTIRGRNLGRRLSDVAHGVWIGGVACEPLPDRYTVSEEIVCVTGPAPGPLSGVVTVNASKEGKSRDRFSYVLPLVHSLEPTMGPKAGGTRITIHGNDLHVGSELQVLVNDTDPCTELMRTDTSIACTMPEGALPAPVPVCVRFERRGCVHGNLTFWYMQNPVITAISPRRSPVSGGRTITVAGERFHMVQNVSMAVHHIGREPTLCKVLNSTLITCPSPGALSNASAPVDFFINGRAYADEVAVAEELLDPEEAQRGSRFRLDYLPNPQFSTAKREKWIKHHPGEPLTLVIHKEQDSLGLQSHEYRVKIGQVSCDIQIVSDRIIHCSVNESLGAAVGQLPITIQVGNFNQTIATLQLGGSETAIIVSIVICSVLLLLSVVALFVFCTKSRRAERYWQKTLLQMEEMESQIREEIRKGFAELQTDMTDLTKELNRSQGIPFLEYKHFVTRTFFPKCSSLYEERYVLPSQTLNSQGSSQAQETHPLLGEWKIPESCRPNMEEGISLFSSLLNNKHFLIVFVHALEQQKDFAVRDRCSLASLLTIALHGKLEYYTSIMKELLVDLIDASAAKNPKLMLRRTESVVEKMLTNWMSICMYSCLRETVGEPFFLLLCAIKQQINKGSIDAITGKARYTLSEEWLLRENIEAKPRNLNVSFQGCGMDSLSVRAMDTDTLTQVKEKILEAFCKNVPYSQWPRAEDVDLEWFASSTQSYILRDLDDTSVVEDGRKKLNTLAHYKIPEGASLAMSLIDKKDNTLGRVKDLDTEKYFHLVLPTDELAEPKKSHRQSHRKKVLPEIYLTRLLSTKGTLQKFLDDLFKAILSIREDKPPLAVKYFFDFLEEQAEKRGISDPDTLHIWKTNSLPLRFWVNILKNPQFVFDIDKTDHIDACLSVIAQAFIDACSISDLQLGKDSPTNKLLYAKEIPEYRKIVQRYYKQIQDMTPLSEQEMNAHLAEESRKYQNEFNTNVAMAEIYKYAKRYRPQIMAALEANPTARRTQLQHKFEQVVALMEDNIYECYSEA

B1: SD1: Ig k-chain secretion signal peptide, sema domain of mouse PlexinD1 protein (aa 61 to 531), fused with six myc epitope tags (protein)
chain: TNNFALDGTAGTVYLAAVNRLYQLSSANLSLEAEATVGPVPDSPLCHAPQLPQASCEHPRRLTDNYNKILQLDPGQGLVVACGSIYQGLCQLRRRGNISALAVSFPPAAPTAEPVTVFPSMLNVAANHPNASTVGLVLPPTSGTGGSRLLVGATYTGFGSAFFPRNRSLEDHRFENTPEIAIRSLDARGDLAKLFTFDLNPSDDNILKIKQGAKEQHKLGFVRAFLHPAVPPHSAQPYAYLALNSEARAGDKDSQARSLLARICLPRGAGGDAKKLTESYIQLGLQCAGGAGRGDLYSRLVSVFPAREQFFAVFERPQGAPGARNAPAALCAFRFDDVQAAIRAARTACFVEPAPDVVAVLDSVVQGTGPACESKRNIQLQPEQLDCGAAHLQHPLTILQPLRASPVFRAPGLTAVAVASANNYTAVFLGTATGRLLKISLNESMQVVSRRVLTVAYGEPVHHVMQFDPMD
modifications: left off: small tags and cut ends
Interaction with Sema3E ligand (co-precipitation) [1]: physically associated with Sema3E | Direct interaction with PlexinD1 [2]: did not directly interact | Direct interaction with Neuropilin-1 [3]: did not directly interact | Direct interaction with VEGFR2 [4]: did not directly interact | Cell death (trypan blue exclusion, cleaved Caspase-3 positive cells) ([5]; SD1 conditioned medium, 0 to 20 nM or 20 nM): induces cell death | Viability, calcein assay ([5]; SD1 purified from conditioned medium): decreased viability | Cell death, trypan blue-exclusion ([5]; recombinant SD1 in conditioned medium): induces cell death | Cell survival, calcein assay [6, 9]: reduction in cell survival | Cell death (trypan blue exclusion, cleaved Caspase-3 positive cells) ([6]; SD1 conditioned medium 20 nM): induces cell death | Cell survival, calcein assay [7, 9]: reduction in cell survival | Cell death (trypan blue exclusion, cleaved Caspase-3 positive cells) ([7]; SD1 conditioned medium 20 nM): induces cell death | Time until tumors reached an average volume of 300 mm^3 ([8]; 4T1-SD1, fat pad (4T1-mock: 31±3 dpi)): 50±6 dpi | Time until tumors reached an average volume of 300 mm^3 ([8]; 4T1-SD1, subcutaneous (4T1-mock: 46±4 dpi)): 60±3 dpi | Tumor cell proliferation (Ki67 immunostaining) ([8]; 4T1-SD1 vs 4T1-mock tumors): unchanged | Number of metastatic nodules at the surface of the lungs ([8]; 27 days, subcutaneous and fat pad transplantations, vs control cells): decrease | SD1-induced death of stromal cells in tumors ([8]; cleaved Caspase-3/-9 immunostaining): not susceptible | Decreased total tumor weight ([8]; fat pad injections, 27 days): 56% | Reduction in the volume of the tumor ([8]; mammary fat pad injection, 27 days): 56% | Reduction in the volume of the tumor ([8]; subcutaneous injection, 27 days): 60% | Decreased total tumor weight ([8]; subcutaneous injections, 27 days): 60% | Concentration of blood vessels in primary tumors (PECAM-1) ([8]; subcutaneous, 4T1-SD1 vs control tumors): did not significantly affect | Increase in tumor cell death (cleaved Caspase-3 or Caspase-9 positive 4T1 cells) in primary tumors ([8]; subcutaneous, 27 days, 4T1-SD1 vs control cells): ~3 fold | Average number of metastatic nodules per lung ([8]; tumors of similar size (300 mm^3), subcutaneous and fat pad): reduction
